{
  "source": "paper doi:10.1101/2023.12.13.571451",
  "about": "(bioRxiv, 2023)",
  "molecular_target": "T1, Tsa1^WT-HA (peroxiredoxin Tsa1, single C-terminal HA tag at the endogenous locus) (S. cerevisiae, UniProt P34760 1-196)",
  "T1 sequence (looked up)": "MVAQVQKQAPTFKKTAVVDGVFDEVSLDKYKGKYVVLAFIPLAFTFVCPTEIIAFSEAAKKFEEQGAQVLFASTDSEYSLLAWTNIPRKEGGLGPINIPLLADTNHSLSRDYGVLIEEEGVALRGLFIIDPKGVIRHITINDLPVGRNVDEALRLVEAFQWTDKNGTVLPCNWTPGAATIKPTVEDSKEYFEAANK",
  "test": "in vitro thioredoxin reaction, non-reducing SDS-PAGE with immunoblot",
  "data": [
    {"binder": "recombinant Trx1-HIS (enzyme, S. cerevisiae, UniProt P22217 1-103, looked up) MVTQFKTASEFDSAIAQDKLVVVDFYATWCGPCKMIAPMIEKFSEQYPQADFYKLDVDELGDVAQKNEVSAMPTLLLFKNGKEVAKVVGANPAAIKQAIAANA", "values": [
      {"measurement": "binding result", "value": "binds"}
    ]}
  ]
}
